Test results as given in paper PMC8213764, “Human intelectin-1 (ITLN1) genetic variation and intestinal expression” (Scientific Reports, 2021).
Where “and” joins values, the source holds several entries; their conditions need not be identical. Identical values can stand only once.

B1: Human intelectin-1 (ITLN1) V109, from V109 homozygote (VV) ileal specimens (natural protein, human (endogenous in ileum), UniProt Q8WWA0 19-298, looked up)
chain: TDEANTYFKEWTCSSSPSLPRSCKEIKDECPSAFDGLYFLRTENGVIYQTFCDMTSGGGGWTLVASVHENDMRGKCTVGDRWSSQQGSKAVYPEGDGNWANYNTFGSAEAATSDDYKNPGYYDIQAKDLGIWHVPNKSPMQHWRNSSLLRYRTDTGFLQTLGHNLFGIYQKYPVKYGEGKCWTDNGPVIPVVYDFGDAQKTASYYSPYGQREFTAGFVQFRVFNNERAANALCAGMRVTGCNTEHHCIGGGGYFPEASPQQCGDFSGFDWSGYGTHVGYS
modifications: single glycosylation site at N163
notes: Human intelectin-1 (ITLN1) with valine at position 109 (rs2274907 A allele), endogenous in ileal mucosa; also called VV genotype; V109-ITLN1; source: endogenous, ileal specimens of V109 homozygote individuals, in lysate
B2: Human intelectin-1 (ITLN1) D109, from D109 homozygote (DD) ileal specimens (natural protein, human (endogenous in ileum), UniProt Q8WWA0 19-298, looked up)
chain: TDEANTYFKEWTCSSSPSLPRSCKEIKDECPSAFDGLYFLRTENGVIYQTFCDMTSGGGGWTLVASVHENDMRGKCTVGDRWSSQQGSKADYPEGDGNWANYNTFGSAEAATSDDYKNPGYYDIQAKDLGIWHVPNKSPMQHWRNSSLLRYRTDTGFLQTLGHNLFGIYQKYPVKYGEGKCWTDNGPVIPVVYDFGDAQKTASYYSPYGQREFTAGFVQFRVFNNERAANALCAGMRVTGCNTEHHCIGGGGYFPEASPQQCGDFSGFDWSGYGTHVGYS
modifications: single glycosylation site at N163
notes: Human intelectin-1 (ITLN1), natural missense variant rs2274907 (T allele) with aspartic acid at position 109, endogenous in ileal mucosa; Natural allele (rs2274907 T); also called DD genotype; D109-ITLN1; source: endogenous, ileal specimens of D109 homozygote individuals, in lysate

Target: the molecule itself
Experiment: non-reducing SDS-PAGE immunoblot; human ileal lysates (150 mM NaCl, 1% Triton X-100, 0.5% sodium deoxycholate, 0.1% SDS, 50 mM Tris pH 8.0), heated at 95 °C for 30 min without 2-mercaptoethanol, gradient SDS-PAGE (4-20%), immunoblot; oligomers stable under denaturing conditions

Protein | stoichiometry N
B1 | 3 and 6
B2 | 3 and 6
